The record followed here is publication PMC5794792.

In test [1] the target is Bovine α-chymotrypsin (bovine). Nature of the test: enzyme inhibition kinetics (progress curves); inhibition of chymotrypsin by several serpin concentrations followed over time at 25 °C; slope of kobs against inhibitor concentration, corrected for non-productive turnover (k'ass); protease assay buffer pH 8.0 with chromogenic substrate.
Test [2] deals with Bovine α-chymotrypsin (bovine). Nature of the test: complex dissociation followed by regain of protease activity; 5 µM serpin-chymotrypsin complex diluted 200–2000-fold (0–25 nM) into assay buffer with substrate, 25 °C; apparent rate constant k_(diss,app).

Consider “α1-antitrypsin (from UniProt P01009 25-418) (natural protein)”, for which the kon – broadly, a measure of how fast the partners come together – in test [1] turned out to be 690000 M⁻¹ s⁻¹. Also, in test [2], the koff (usually a measure of how fast the partners let go of each other) came out at 7.5e-06 s⁻¹.
